Target: 161P2F10B variant 1 (human 161P2F10B), on the cell surface (human) (UniProt O14638)
Assay: FACS titration on KU-812 cells, one site binding fit

Kd: 4.73 nM
B1: H16-1.92.1.1 (antibody, part only; not given: light chain, V domains shown, part only)
VH: EVLLVESGPGLVKPSETLSLTCTVSGGSISSSSYFWGWIRQPPGKGLEWIGSIYYSGNTYYNPSLKSRVTISVDTSKNRFSLKLSSVTAADTAVYCCASATTVTTAFDIWGQGTMVTVSSASTKGPSVFPLAPSS

— patent US20090022663A1
